{"source": "patent US20240043504A1", "about": "(published 2024)", "test_in_all_cases": "Luminex bead binding, supernatant", "key": {"[1]": {"target": "SARS-CoV-2 Spike Protein (RBD)(R319-F541).mFc (mAb10621-L1) (SARS-CoV-2)"}, "[2]": {"target": "Human SARS Coronavirus Spike S1 Subunit Protein (His Tag) (Sino 40150-V08B1) (Human SARS Coronavirus, UniProt P59594 14-667)"}, "[3]": {"target": "T1, MERS-CoV (NCoV/Novel coronavirus) Spike Protein (ECD, aa 1-1297, His Tag) (Sino 40069-[change]) (MERS-CoV, UniProt K9N5Q8 18-1297)", "T1 sequence": "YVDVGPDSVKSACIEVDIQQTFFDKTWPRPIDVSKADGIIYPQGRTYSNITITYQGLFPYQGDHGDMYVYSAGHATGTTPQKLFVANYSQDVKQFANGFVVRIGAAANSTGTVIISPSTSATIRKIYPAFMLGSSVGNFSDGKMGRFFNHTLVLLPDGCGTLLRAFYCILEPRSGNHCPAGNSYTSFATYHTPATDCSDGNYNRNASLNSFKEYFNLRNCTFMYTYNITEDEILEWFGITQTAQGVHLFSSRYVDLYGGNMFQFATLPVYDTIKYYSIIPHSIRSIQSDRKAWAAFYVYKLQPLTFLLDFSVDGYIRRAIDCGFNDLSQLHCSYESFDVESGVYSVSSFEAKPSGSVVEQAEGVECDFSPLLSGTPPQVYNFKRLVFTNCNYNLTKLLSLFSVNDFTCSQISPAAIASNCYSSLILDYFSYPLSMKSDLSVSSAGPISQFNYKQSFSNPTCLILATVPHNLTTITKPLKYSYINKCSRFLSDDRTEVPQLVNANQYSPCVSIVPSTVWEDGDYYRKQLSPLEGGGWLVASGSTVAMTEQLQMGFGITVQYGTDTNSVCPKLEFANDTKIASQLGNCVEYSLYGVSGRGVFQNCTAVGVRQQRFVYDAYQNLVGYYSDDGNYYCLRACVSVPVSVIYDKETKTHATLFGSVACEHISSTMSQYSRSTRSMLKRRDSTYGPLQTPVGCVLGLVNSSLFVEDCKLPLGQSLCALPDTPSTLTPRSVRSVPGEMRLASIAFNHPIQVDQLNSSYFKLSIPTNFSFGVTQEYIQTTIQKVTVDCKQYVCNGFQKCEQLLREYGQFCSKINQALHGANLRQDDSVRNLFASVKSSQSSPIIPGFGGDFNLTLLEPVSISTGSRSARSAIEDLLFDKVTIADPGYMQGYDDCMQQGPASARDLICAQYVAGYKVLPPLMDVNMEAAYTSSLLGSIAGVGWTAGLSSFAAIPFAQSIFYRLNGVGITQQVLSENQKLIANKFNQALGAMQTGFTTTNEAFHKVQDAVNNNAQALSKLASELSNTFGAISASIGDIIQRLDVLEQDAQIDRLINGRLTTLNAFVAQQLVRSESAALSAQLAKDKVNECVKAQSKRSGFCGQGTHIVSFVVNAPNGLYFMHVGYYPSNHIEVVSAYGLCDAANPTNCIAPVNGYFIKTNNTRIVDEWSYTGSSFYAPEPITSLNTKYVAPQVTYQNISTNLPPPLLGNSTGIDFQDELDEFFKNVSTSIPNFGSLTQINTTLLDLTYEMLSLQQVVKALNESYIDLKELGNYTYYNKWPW"}, "[4]": {"target": "SARS-CoV-2 Spike Protein (RBD)(R319-F541).hFc (mAb10622-L1) (SARS-CoV-2)"}, "[5]": {"target": "T2, MERS-CoV (NCoV/Novel coronavirus) Spike Protein fragment (RBD, aa 367-606, His Tag) (Sino 40071-V08B1) (MERS-CoV, UniProt K9N5Q8 367-606)", "T2 sequence": "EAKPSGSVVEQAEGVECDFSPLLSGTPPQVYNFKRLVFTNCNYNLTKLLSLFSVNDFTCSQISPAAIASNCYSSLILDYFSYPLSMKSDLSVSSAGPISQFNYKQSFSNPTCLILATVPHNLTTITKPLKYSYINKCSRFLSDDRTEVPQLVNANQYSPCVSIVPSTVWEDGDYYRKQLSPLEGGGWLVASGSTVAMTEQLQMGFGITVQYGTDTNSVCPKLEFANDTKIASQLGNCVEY"}, "[6]": {"target": "T3, MERS-CoV (NCoV/Novel coronavirus) Spike Protein S2 (aa 726-1296, His Tag) (Sino 40070-[change]) (MERS-CoV, UniProt K9N5Q8 726-1296)", "T3 sequence": "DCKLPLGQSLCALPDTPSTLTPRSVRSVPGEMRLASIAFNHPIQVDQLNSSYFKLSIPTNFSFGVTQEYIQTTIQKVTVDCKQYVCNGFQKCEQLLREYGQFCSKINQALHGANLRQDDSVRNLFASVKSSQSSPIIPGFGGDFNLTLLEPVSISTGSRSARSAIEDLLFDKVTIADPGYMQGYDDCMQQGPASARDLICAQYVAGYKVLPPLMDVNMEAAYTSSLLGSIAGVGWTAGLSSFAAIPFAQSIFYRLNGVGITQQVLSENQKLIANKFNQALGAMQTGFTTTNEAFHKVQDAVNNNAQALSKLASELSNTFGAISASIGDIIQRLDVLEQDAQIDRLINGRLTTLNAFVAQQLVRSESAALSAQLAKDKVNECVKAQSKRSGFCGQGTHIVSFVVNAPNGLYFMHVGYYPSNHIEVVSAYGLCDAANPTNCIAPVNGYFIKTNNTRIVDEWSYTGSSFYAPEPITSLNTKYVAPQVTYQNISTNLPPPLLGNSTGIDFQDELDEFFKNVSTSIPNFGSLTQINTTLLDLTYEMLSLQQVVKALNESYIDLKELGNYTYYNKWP"}, "[7]": {"target": "Bt-SARS-CoV-2 Spike Protein (RBD)(R319-F541).mFc (mAb10621-L2) (SARS-CoV-2)"}}}
{"binder": "mAb11008 (antibody, V domains shown) VH: EVQLVESGGGLVQPGGSLRLSCAASGFTVSSNYMTWVRQAPGKGLEWVSVIYSGGSTFYADSVKGRFTISRHNSENTLYLQMNSLRAEDTAVYYCARDLAAAGTDYWGQGALVTVSS VL: DIQLTQSPSFLSASVGDRVTITCWASQGISSYLAWYQQKPGKAPKLLIYAASTLQSGVPSRFSGSGSGTEFTLTISSLQPDDFATYYCQHLNSYLYTFGQGTKLEIK", "values": [{"measurement": "Binding signal (MFI)", "setting": "[1]", "value": 4260, "unit": "MFI"}, {"measurement": "Binding signal (MFI)", "setting": "[2]", "value": 31, "unit": "MFI"}, {"measurement": "Binding signal (MFI)", "setting": "[3]", "value": 18, "unit": "MFI"}, {"measurement": "Binding signal (MFI)", "setting": "[4]", "value": 2570, "unit": "MFI"}, {"measurement": "Binding signal (MFI)", "setting": "[5]", "value": 20, "unit": "MFI"}, {"measurement": "Binding signal (MFI)", "setting": "[6]", "value": 16, "unit": "MFI"}, {"measurement": "Binding signal (MFI)", "setting": "[7]", "value": 3050, "unit": "MFI"}]}
